B1: PW5-535 (antibody, V domains shown)
VH: EVRLVESGGGLVQPGGSLRLSCAASGFTFRNYDIHWVRQTTGKGLEWVSAVGTSGDTYYLDSVKGRFTISREDAKKSVYLQMNSLRAGDTAMYYCVRGDASPDNIYYYMDVWGTGTRVIVSS
VL: DIQVTQSPSPLSASVGDRVTITCRASQTIGKYLNWYHQIPGKAPKLLISAASTLHSGVPSRFSGRGSGTDFTLTISSLQPEDFGTYYCQQSYSSPPWTFGQGTKVEIK
B2: PW5-5 (antibody, V domains shown)
VH: QVQLVQSGAEVKKPGASVKVSCKTSGYTFTDHYMYWVRQAPGQGLEWMGVINPDAGSVTYAQKFQGRVTMTSDTSTSTVYMELSSLRSEDTAVYYCARDLFFIPAANSFDYWGQGTLVTVSS
VL: EIVLTQSPATLSLSPGERATLSCRASQSVSSYLAWYQQKPGQAPRLLIYDATNRATGIPARFSGSGSGTDFTLTISSLEPEDFAVYYCQHRSNWPRMFTFGQGTKLEIK
notes: also called PW5-5 IgG; IgG PW5-5
B3: PW5-570 (antibody, V domains shown)
VH: QMQLVQSGPEVRKPGTSVKVSCRASVFSFDTSAVQWVRQARGQPLEWIGWIVFGSSNTDYAQKFRDRVTITGDMSTGTAYMELSSLRSEDTAVYYCAAPHCNRTNCHDGFDIWGQGTVVTVSS
VL: EIVLTQSPGTLSLSPGERATLSCRASQSVRSGYLGWYQQKPGQAPRLLIYGAYNRATGIPDRFRGSGSGTDFTLTISRLEPEDFVVYYCQQYDRSPWTFGQGTKVEIK
notes: also called PW5-570 IgG; PW5-570 immunoglobulin G

In one assay the target is T1, SARS-CoV-2 NTD (aa 1-305) (SARS-CoV-2, UniProt P0DTC2).
T1 construct: source: Expi293 cells, transient transfection (pCMV3), purified
Nature of the assay: ELISA. To be noted: both partners purified. Background: ELISA stands for enzyme-linked immunosorbent assay.
Consider B1, for which the binding result is listed as “no binding”.
Same read-out and setting: the result for B2 reads “no binding”; that for B3, “no binding”.

The next assay concerns the target T2, SARS-CoV-2 RBD (aa 319-541) (SARS-CoV-2, UniProt P0DTC2).
T2 construct: source: Expi293 cells, transient transfection (pCMV3), purified
Nature of the assay: ELISA. To be noted: both partners purified.
With B1, the binding result is reported as “binds”.
Same read-out and setting: the result for B2 reads “binds”.
With B3, the binding result is “binds”.

The record behind these values is article PMC10847457 (Cell Discovery, 2024).
